Results reported in patent US20230106715A1 (BIOSION, published 2023).

How the values were obtained:
[1] = target: T1, cynomolgus monkey Siglec15-his protein (cynomolgus monkey); test: indirect ELISA on coated cynomolgus Siglec15-his
T1 construct: In house made; also called Cynomolgus Siglec15-his; cynomolgus Siglec15
T1 chain: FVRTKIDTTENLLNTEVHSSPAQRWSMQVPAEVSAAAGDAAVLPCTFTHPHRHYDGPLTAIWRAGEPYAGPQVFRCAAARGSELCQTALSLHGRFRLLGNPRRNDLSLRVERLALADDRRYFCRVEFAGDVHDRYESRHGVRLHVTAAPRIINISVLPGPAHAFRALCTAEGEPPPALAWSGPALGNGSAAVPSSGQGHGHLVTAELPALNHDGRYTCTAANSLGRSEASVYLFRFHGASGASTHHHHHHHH
Experimental: The anti-Siglec15 antibodies' cross-reactions to cynomolgus or mouse Siglec15 proteins were measured. Briefly, 96-well micro plates were coated with 100 μl of 2 μg/ml cynomolgus Siglec15-his protein (in house made with SEQ ID NO: 21), or 2 μg/ml mouse Siglec15-his protein (in house made with SEQ ID NO: 22) in carbonate/bicarbonate buffer (pH 9.6) for 2 hours at 37° C. ELISA plates were washed once with wash buffer (PBS+0.05% v/v Tween-20, PBST) and then blocked with 200 μl/well blocking buffer (5% w/v non-fatty milk in PBST) overnight at 4° C. Plates were washed 4 times and incubated with 100 μl serially diluted anti-Siglec15 antibodies of the disclosure or controls (starting at 66.7 nM, 5-fold serial dilution in PBST with 2.5% w/v non-fatty milk) for 40 minutes at 37° C. ELISA plates were washed 4 times again and incubated with Peroxidase AffiniPure Goat Anti-Human IgG, F(ab)₂ fragment specific (1:5000 dilution in PBST buffer, Jackson Immunoresearch, Cat #109-035-097, 100 μl/well) for 40 minutes at 37° C. After a final wash, plates were incubated with 100 μl/well TMB (Innoreagents, Cat #TMB-S-002). The reaction was stopped 4 minutes later at room temperature with 50 μl 1M H₂SO₄, and the absorbance of each well was read on a microplate reader using dual wavelength mode with 450 nm for TMB and 630 nm as the reference wavelength, then the OD (450-630) values were plotted against antibody concentration. Data was analyzed using Graphpad Prism software and EC₅₀ values were reported.

[2] = target: T2, human Siglec15-Fc protein (human); test: competitive ELISA: coated human Siglec15-Fc, blocked ligand biotin-labeled human LRRC4C-Fc
T2 construct: In house made; also called recombinant human Siglec15 protein with human IgG1 Fc at the C-terminus
Experimental: Serially diluted anti-Siglec15 antibodies or the controls (starting at 66.67 nM with a 5-fold serial dilution) in PBST with 2.5% w/v non-fatty milk were added to the Siglec15-Fc bound plates, 100 μl per well, and incubated with the human Siglec15-Fc protein at 37° C. for 40 minutes. Plates were washed 4 times again using wash buffer, then added and incubated for 40 minutes at 37° C. with 100 μl/well 290 ng/ml biotin-labeled human LRRC4C-Fc protein (prepared in-house with SEQ ID NO: 23). Plates were washed again using wash buffer. Thereafter, the plates were added with 100 μl/well streptavidin conjugated HRP (1:5000 dilution in PBST buffer, Jackson Immunoresearch, Cat #016-030-084) and incubated for 40 minutes at 37° C. Plates were washed again using wash buffer. Finally, TMB was added and the reaction was stopped using 1M H₂SO₄, and the absorbance of each well was read on a microplate reader using dual wavelength mode with 450 nm for TMB and 630 nm as the reference wavelength, then the OD (450-630) values were plotted against antibody concentration. Data was analyzed using Graphpad Prism software and IC₅₀ values were reported.

[3] = target: T3, recombinant human Siglec15-his protein (human, UniProt Q6ZMC9 20-263); test: capture ELISA, captured antibody, biotin-labeled human Siglec15-his in solution
T3 construct: In house made; Biotin-labeled in the capture ELISA
T3 sequence: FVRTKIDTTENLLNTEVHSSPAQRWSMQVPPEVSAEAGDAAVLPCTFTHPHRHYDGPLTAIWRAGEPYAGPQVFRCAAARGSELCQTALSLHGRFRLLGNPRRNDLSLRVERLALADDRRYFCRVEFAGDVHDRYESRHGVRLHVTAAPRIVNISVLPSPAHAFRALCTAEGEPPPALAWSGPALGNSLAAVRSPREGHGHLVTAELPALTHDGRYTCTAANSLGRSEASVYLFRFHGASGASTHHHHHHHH
Experimental: Briefly, 96-well plates were coated with 100 μl of 2 μg/ml AffiniPure Goat Anti-Human IgG F(ab′)₂ fragment specific (Jackson Immuno Research, Cat #109-005-097) in PBS for 2 hours at 37° C. Plates were washed once with wash buffer (PBS+0.05% v/v Tween-20, PBST) and then blocked with 200 μl blocking buffer (5% w/v non-fatty milk in PBST) overnight at 4° C. Plates were washed 4 times and respectively incubated with 100 μl serially diluted anti-Siglec15 antibodies of the disclosure, the benchmark and hIgG (human immunoglobulin (pH4) for intravenous injection, Hualan Biological Engineering Inc.), 5-fold dilution in 2.5% w/v non-fatty milk in PBST starting at 66.7 nM, for 40 minutes at 37° C., and then washed 4 times again. Plates containing captured antibodies were incubated with 100 μl biotin-labeled human Siglec15-his protein (in house made with SEQ ID NO: 20, 145 ng/ml in 2.5% w/v non-fatty milk in PBST) for 40 minutes at 37° C., washed 4 times, and incubated with streptavidin conjugated HRP (1:10000 dilution in PBST, Jackson Immuno Research, Cat #016-030-084, 100 μl/well) for 40 minutes at 37° C. After a final wash, plates were incubated with 100 μl/well ELISA substrate TMB (Innoreagents, Cat #TMB-S-002). The reaction was stopped in 4 minutes at room temperature with 50 μl/well 1M H₂SO₄, and the absorbance of each well was read on a microplate reader using dual wavelength mode with 450 nm for TMB and 630 nm as the reference wavelength, then the OD (450-630) values were plotted against antibody concentration. Data was analyzed using Graphpad Prism software and EC₅₀ values were reported.

T2 sequence (chain, as listed by the source limits assumed): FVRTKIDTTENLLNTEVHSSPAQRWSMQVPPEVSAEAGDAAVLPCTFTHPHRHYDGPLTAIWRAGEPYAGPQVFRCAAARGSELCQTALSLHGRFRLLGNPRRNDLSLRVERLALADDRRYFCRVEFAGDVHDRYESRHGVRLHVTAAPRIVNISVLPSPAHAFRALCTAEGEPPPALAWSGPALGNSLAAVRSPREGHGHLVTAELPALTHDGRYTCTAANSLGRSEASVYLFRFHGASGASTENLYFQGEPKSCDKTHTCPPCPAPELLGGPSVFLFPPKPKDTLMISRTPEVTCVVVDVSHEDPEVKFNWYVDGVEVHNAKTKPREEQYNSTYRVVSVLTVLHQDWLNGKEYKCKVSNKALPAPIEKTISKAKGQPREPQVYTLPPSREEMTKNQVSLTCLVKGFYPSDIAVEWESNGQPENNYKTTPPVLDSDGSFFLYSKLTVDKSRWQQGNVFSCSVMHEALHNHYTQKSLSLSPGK

Row | Binder | EC50 [1] [nM] | IC50 [2] [nM] | EC50 [3] [nM]
1 | A2A5C7E8 (antibody, V domains shown, Fully human antibody from transgenic mouse hybridoma; also called A2A5C7E8-1) VH: EVQLVQSGAEVKKPGESLRISCKGSGYSFTTYWISWVRQMPGKGLEWMGLIDPSDSYTNYSPSFQGHVTISTDKSISTAYLQWSSLKASDTAMYYCARGGYYGSEEDYWGQGTLVTVSS VL: EIVLTQSPGTLSLSPGERATLSCRASQSVSSSRLAWFQQKSGQAPRLLIFDASSRATGIPDRFSGSGSGTDFTLTISRLEPEDFAVYYCQQYGSSPRTFGQGTKVEFK | – | 0.394 | 0.0848
2 | A2A5C7E8-2 (antibody, human IgG1, kappa, V domains shown, Variant of A2A5C7E8 modified in VH CDR2 (X1 = E)) VH: EVQLVQSGAEVKKPGESLRISCKGSGYSFTTYWISWVRQMPGKGLEWMGLIDPSESYTNYSPSFQGHVTISTDKSISTAYLQWSSLKASDTAMYYCARGGYYGSEEDYWGQGTLVTVSS VL: EIVLTQSPGTLSLSPGERATLSCRASQSVSSSRLAWFQQKSGQAPRLLIFDASSRATGIPDRFSGSGSGTDFTLTISRLEPEDFAVYYCQQYGSSPRTFGQGTKVEFKR | – | 0.446 | 0.502
3 | B2D7H7A3C1 (antibody, V domains shown, Mouse monoclonal antibody from hybridoma; also called mouse B2D7H7A3C1) VH: QVQLQQSGAELVRPGTSVQMSCKAAGYTFTNYWIGWVKQRPGHGLEWVGDIHPGINYTNNNEKFRGKATLTADTSSNTAYMQLRGLTSDDSAIYYCARVDYDYDGSYIMDYWGQGTSVTVSS VL: QIVLSQSPALLSASPGEKVTMTCRASSSVSYMYWYQQKPGSSPKPWIYATSNLTSGVPARFSGSGSGTSYSLTISRVEAEDAATYFCQQWNSKPWTFGGGSKLEIR | 0.197 | – | –

Further lines, results first:

Row | EC50 [1] [nM] | IC50 [2] [nM] | EC50 [3] [nM] | Binder
4 | 0.201 | 0.674 | 1.79 | anti-Siglec15 benchmark (ch5G12) (antibody, human IgG1, kappa, V domains shown, ch5G12 (US 20190202912A1); also called BM; Siglec15-ch5G9) VH: QVQLQQPGAELVKPGASVKMSCKASGYTFTSYWITWVIQRPGQGLEWIGDIYCGSDTMHYNEKFKNKATLTVDTSSSTAYMQLSSLTSEDSAVYYCARWWDYGSSYDYFDYWGQGTTLTVSS VL: DIKMTQSPSSMYASLGERVTITCKASQDINSYLSWFQQKPGKSPKTLIYRANRLVDGVPSRFSGSGSGQDYSLTISSLEYEDMGIYYCLQYDEFPYTFGGGTKLEIKR
5 | – | 0.546 | 0.0902 | A2A5C7E8-3 (antibody, human IgG1, kappa, V domains shown, Variant of A2A5C7E8 modified in VH CDR2 (X2 = K)) VH: EVQLVQSGAEVKKPGESLRISCKGSGYSFTTYWISWVRQMPGKGLEWMGLIDPSDSYTNYSPSFKGHVTISTDKSISTAYLQWSSLKASDTAMYYCARGGYYGSEEDYWGQGTLVTVSS VL: EIVLTQSPGTLSLSPGERATLSCRASQSVSSSRLAWFQQKSGQAPRLLIFDASSRATGIPDRFSGSGSGTDFTLTISRLEPEDFAVYYCQQYGSSPRTFGQGTKVEFKR
6 | 0.179 | – | – | B2H2H1H7 (antibody, V domains shown, Mouse monoclonal antibody from hybridoma; also called mouse B2H2H1H7; B2H2H1A7) VH: QVQLQQSGAELVRPGTSVQMSCKAAGYTFTNYWIGWVKQRPGHGLEWVGDIHPGINYTNNNEKFRGKATLTADTSSSTAYMQLRGLTSDDSAIYYCARVDYDYDGSYIMDYWGQGTSVTVSS VL: QIILSQSPALLSASPGEKVTMTCRASSSVSYMYWYQQKPGSSPKPWIYATSNLTSGVPARFSGSGSGTSYSLTISRVEAEDAATYFCQQWNSKPWTFGGGSRLEIR
7 | 0.146 | – | – | B2G12H3E8 (antibody, V domains shown, Mouse monoclonal antibody from hybridoma; also called mouse B2G12H3E8) VH: QVQLKQSGAELVRPGTSVQMSCKAVGYTFTNYWIGWVKQRPGHGLEWVGDIHPGINYTNNNEKFRGKATLTADTSSSTAYMQLRGLTSDDSAIYYCARVDYDYDGSYIMDYWGQGTSVTVSS VL: QIVLSQSPALLSASPGEKVTMTCRASSSVSYMYWYQQKPGSSPKPWIYATSNLTSGVPARFSGSGSGTSYSLTISRVEAEDAATYFCQQWNSKPWTFGGGSKLEIR
